{"source": "paper PMC3488191", "about": "“Functional identification of the DNA packaging terminase from Pseudomonas aeruginosa phage PaP3”", "key": {"[1]": {"target": "T1, p01 small terminase subunit (Pseudomonas aeruginosa phage PaP3) (UniProt Q8H9R5)", "T1 sequence": "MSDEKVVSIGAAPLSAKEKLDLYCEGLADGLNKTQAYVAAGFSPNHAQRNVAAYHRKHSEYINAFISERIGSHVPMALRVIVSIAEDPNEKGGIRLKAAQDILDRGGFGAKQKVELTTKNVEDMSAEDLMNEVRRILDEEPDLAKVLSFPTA", "experiment": "EMSA", "settings": "50 mM Tris-HCl pH 8.0, 50 mM NaCl, 10 mM MgCl2, 5% glycerol, 1.5 uM DNA, 37 C 30 min, stopped with 20 mM EDTA; 5% native PAGE in 0.5x TBE"}, "[2]": {"target": "T2, p03 large terminase subunit (Pseudomonas aeruginosa phage PaP3, UniProt Q8H9R7 1-482)", "T2 sequence": "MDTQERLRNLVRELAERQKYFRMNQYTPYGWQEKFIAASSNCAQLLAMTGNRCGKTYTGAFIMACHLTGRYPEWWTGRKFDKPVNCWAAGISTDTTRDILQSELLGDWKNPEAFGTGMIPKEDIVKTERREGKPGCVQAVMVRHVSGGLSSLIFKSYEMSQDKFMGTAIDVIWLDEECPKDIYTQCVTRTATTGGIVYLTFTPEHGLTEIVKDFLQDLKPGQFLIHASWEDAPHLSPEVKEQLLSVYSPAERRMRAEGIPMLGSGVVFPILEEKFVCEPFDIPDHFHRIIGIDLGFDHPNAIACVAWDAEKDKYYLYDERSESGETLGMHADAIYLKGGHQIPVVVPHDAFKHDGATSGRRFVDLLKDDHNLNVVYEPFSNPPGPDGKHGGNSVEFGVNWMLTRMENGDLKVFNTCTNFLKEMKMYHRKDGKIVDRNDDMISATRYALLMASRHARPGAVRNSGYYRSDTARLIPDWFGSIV", "experiment": "EMSA; 10 mM Mg2+; 0.4 uM p03; 50 mM Tris-HCl pH 8.0, 50 mM NaCl, 10 mM MgCl2, 5% glycerol, 1.5 uM DNA, 37 C 30 min, stopped with 20 mM EDTA; 5% native PAGE in 0.5x TBE", "settings": "protein: recombinant; tags: C-terminal His6 (pET-22b); label: 5'-biotin; blunt"}, "[3]": {"target": "T2, p03 large terminase subunit", "experiment": "EMSA; 10 mM Mg2+; 50 mM Tris-HCl pH 8.0, 50 mM NaCl, 10 mM MgCl2, 5% glycerol, 1.5 uM DNA, 37 C 30 min, stopped with 20 mM EDTA; 5% native PAGE in 0.5x TBE", "settings": "protein: recombinant; tags: C-terminal His6 (pET-22b); label: 5'-biotin; blunt"}}, "data": [{"molecule": "ATACTCCCCGTCGCGCTTGAACCACGGGGTCTGTCAATTGATTGCGCTGGGACAGGCTACCAGTCGGGCCTTCTATGGTACAAGGCCAGGACCTACGCTCTTTCGGAGTGTGCGTTATTCCCTCAGCTTTCGGGTTTCTCCCTTGTTCAGTCCAAGGACCGTCGAAGGTACACTTTCCCCAGGTGGCCGTCACCTGATGGGTGCCCATGTTAGAGCCGTGGGCTTGCCTTGTCAACCCT (double strand) [cos239dn]", "values": [{"measurement": "binding", "setting": "[1]", "result": "no binding"}]}, {"molecule": "20-bp cos end sequence (dsDNA) DNA 1: GCCGGCCCCTTTCCGCGTTA DNA 2: TAACGCGGAAAGGGGCCGGC", "values": [{"measurement": "binding result", "setting": "[2]", "result": "binds"}]}, {"molecule": "24-bp non-cos DNA (dsDNA) DNA 1: GCACTGCAGTAACTTGTCAGTCAT DNA 2: ATGACTGACAAGTTACTGCAGTGC", "values": [{"measurement": "binding result", "setting": "[3]", "result": "no binding"}]}]}
